Measured values: publication PMC12334862
Values belong to the substance of their own block, whether it stands above or below them.

Tests used:
[1] = target: His6-tagged dimerization-deficient rat gephyrin variant (G483D, S505F), trimers (ddGephT) (rat); assay: SEC; single proteins: preparative Superdex 200 16/60 after Ni-NTA and analytical Superose 6 increase; molecular weights by comparison to standard proteins; oligomeric state of the protein with itself
[2] = target: His6-tagged rat gephyrin P1, wild type, high oligomers (GephHO) (rat); assay: SEC; as a1 with 1.5 nmol of the respective PIP (10 mol% in POPC) or POPC alone in DDM micelles added; SEC buffer with 0.01% DDM; height of the > 5 MDa void peak P1 at 280 nm
[3] = target: His6-tagged rat gephyrin E-domain, wild type (WT-GephE) (rat); assay: mass photometry; Refeyn TwoMP; 5 nM final in 25 mM Tris/HCl pH 7.5, 150 mM NaCl, 5 mM β-mercaptoethanol, 1% glycerol; 60 s
[4] = target: His6-tagged rat gephyrin P1, wild type, high oligomers (GephHO) (rat); assay: SEC; single proteins: preparative Superdex 200 16/60 after Ni-NTA and analytical Superose 6 increase; molecular weights by comparison to standard proteins; oligomeric state of the protein with itself
[5] = target: His6-tagged rat gephyrin P1, wild type, trimers (GephT) (rat); assay: as above
[6] = target: collybistin CB2SH3+ (Rattus norvegicus) (UniProt Q9QX73); assay: FRET; conditions: cited from earlier work
[7] = target: gephyrin from pig brain (pig (endogenous in pig brain tissue)); assay: native gel or EMSA; blue native PAGE (4%-16%) of the cytosol fraction of pig brain, western blot for gephyrin

Chain of gephyrin E-domain (Q03555 326-768): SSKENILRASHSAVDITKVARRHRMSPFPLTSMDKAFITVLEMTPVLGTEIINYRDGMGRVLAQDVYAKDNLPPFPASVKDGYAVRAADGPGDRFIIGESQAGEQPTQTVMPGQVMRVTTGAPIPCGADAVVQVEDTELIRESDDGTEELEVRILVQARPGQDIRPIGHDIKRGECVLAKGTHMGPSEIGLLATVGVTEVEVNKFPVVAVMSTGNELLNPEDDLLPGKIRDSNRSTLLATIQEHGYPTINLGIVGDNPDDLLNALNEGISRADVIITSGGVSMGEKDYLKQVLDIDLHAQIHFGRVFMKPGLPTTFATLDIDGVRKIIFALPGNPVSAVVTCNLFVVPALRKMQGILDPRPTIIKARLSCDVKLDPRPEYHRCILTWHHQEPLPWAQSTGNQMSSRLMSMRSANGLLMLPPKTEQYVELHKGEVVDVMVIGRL
Chain of collybistin CB2SH3+ (Rattus norvegicus) (Q9QX73 whole entry): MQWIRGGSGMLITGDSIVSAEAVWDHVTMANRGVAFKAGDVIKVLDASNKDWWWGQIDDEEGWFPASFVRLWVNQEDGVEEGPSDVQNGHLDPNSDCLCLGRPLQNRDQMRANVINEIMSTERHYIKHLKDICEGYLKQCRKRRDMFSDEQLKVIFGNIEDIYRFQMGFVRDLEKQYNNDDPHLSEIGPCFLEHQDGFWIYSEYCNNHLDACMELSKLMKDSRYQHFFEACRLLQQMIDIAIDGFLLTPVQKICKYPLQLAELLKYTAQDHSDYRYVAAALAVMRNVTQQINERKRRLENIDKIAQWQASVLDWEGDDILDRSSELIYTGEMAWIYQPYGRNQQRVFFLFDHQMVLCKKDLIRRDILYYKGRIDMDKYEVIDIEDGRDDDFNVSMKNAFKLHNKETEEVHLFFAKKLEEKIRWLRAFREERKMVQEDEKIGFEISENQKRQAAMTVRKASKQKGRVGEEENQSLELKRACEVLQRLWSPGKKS

Substance: His6-tagged dimerization-deficient rat gephyrin variant (G483D, S505F), trimers (ddGephT) (natural protein)
stoichiometry N [1]: 3

Substance: His6-tagged rat gephyrin P1, wild type, trimers (GephT) (natural protein)
stoichiometry N [5]: 3

Substance: gephyrin E-domain (from UniProt Q03555)
Kd [6]: 6.3 µM

Substance: gephyrin from pig brain (natural protein)
stoichiometry N [7]: 3

Other lines, results leading:

P1 (> 5 MDa complex peak) absorption at 280 nm with PI(3,4)P2 [2]: 344 mAU
P1 (> 5 MDa complex peak) absorption at 280 nm with PI(3,4,5)P3 [2]: 378 mAU
P1 (> 5 MDa complex peak) absorption at 280 nm with PI(4,5)P2 [2]: 255 mAU
P1 (> 5 MDa complex peak) absorption at 280 nm with POPC [2]: 148 mAU
increase of the CB2SH3- band share within P1 with PI(3,4,5)P3 against the POPC control [2]: 22%
increase of the GephHO band share within P1 with PI(3,4,5)P3 against the POPC control [2]: 21%
Substance: His6-tagged rat collybistin isoform 2 lacking the SH3 domain (CB2_(SH3-)) (natural protein)

stoichiometry N [3]: 2
Substance: His6-tagged rat gephyrin E-domain, wild type (WT-GephE) (domain or fragment)

stoichiometry N [4]: 12
Substance: His6-tagged rat gephyrin P1, wild type, high oligomers (GephHO) (natural protein)
